According to patent US20250090677A1 (MULTITUDE THERAPEUTICS, published 2025):
Substitutions are numbered along the chain they refer to.

Assays:
[1] = target: T1, CDH6 on the cell surface of OVCAR-3 cells (human ovarian cancer cells) (human, UniProt P55285 54-790); assay: flow cytometry (FACS) on OVCAR-3 cells, antibody titration, labelled secondary antibody, MFI
T1 construct: whole, on cells; also called CDH6-positive human ovarian cancer cell line OVCAR-3
T1 sequence (looked up): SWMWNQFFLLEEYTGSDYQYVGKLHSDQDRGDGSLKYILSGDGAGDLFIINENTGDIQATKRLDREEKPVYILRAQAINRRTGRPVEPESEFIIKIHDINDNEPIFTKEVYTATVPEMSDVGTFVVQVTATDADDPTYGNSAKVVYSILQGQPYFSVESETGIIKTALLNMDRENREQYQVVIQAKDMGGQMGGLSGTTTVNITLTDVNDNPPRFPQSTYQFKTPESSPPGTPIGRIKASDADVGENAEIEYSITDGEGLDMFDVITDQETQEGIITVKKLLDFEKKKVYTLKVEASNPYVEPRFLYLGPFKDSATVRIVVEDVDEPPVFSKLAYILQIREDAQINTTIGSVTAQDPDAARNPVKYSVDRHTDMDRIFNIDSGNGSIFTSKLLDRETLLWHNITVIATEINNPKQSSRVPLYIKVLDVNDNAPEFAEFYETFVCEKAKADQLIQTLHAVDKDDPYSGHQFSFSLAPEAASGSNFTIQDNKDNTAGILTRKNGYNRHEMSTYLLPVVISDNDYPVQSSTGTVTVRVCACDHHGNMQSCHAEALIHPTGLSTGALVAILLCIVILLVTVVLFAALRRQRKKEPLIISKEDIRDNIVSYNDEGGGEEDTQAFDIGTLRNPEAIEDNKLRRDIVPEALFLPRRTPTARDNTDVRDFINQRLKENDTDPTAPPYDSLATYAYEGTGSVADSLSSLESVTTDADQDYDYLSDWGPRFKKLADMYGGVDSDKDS
Description: The binding EC50 of the humanized antibodies on tumor cell were tested as follow. Human ovarian cancer cell line OVCAR-3(purchased from National Collection of Authenticated Cell Cultures) cell culture was maintained in vitro as independent monolayer cultures at 37° C. in an atmosphere of 5% CO₂. The cells were harvested using trypsin-EDTA partial digestion followed by centrifugation at 1000 rpm for 5 minutes. The cell was resuspended in cold PBS and serial dilution of Ch069707 and CL069707-H1L1, CL069707-H1L2, CL069707-H2L1 and CL069707-H2L2 antibodies were added. Ch069707 antibody was a chimeric antibody. The variable regions were the same as those of CL069707, and the constant region was the same as human IgG1 constant regions (SEQ ID NO: 70 and SEQ ID NO: 71). The cell solutions were mixed, incubated at 4° C. and washed with cold PBS prior to addition of secondary antibody conjugates (for detection purposes). After incubation at 4° C., the cells were washed with PBS, and then subjected to flow cytometry (FACS) analysis.

cyno monkey CDH6-ECD-His = target: T2, cyno monkey CDH6-ECD-His (cyno monkey, UniProt A0A2K5TW62 54-615); assay: BLI (Octet), antibody on AHC sensor, antigen 3.13-100 nM, 1:1 model
T2 construct: extracellular domain; Bought protein; also called Cyno CDH6-ECD-His; not shown: His tag
T2 sequence: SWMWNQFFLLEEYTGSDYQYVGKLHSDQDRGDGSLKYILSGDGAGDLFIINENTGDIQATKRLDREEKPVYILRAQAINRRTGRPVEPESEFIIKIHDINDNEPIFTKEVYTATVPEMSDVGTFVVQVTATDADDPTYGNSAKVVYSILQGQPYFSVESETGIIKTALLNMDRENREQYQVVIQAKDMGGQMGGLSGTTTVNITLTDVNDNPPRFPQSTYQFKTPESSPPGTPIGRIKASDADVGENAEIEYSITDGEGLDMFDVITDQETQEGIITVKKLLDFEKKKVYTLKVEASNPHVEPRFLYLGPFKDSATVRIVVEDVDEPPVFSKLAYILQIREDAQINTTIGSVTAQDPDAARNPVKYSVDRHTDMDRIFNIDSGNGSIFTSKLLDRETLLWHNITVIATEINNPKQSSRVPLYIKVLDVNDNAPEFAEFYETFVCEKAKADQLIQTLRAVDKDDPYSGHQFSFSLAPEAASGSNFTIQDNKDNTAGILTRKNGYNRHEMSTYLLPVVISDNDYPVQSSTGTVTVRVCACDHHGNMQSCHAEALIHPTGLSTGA
Description: (§1) Binding affinities of CL069707-H1L1 and Ch069707 were measured using the Octet® system based on Bio-Layer Interferometry (BLI) technique. Antibodies were loaded to AHC (Anti-hIgG Fc Capture) at 100 nM concentration. […] From the six different binding curves obtained from each antigen concentration, binding constants (KD) were calculated based on the 1:1 binding model. CL069707-H1L1 and Ch069707 binds to human CDH6-ECD-His antigen with similar affinity. CL069707-H1L1 binds to human CDH6-ECD-His and cyno monkey CDH6-ECD-His antigens with similar affinity.

Human CDH6-ECD-His = target: T3, Human CDH6-ECD-His (human, UniProt P55285 54-615); assay: as above
T3 construct: extracellular domain; Bought protein; also called human CDH6-ECD-His recombinant protein; Human CDH6-EC6D-His; not shown: His tag
T3 sequence (looked up): T2 sequence with H300Y, R457H
Description: as §1

B1: Ch069707 (antibody, human IgG1, kappa, V domains shown)
VH: EVHLVESGGGLVQPKGSLKLSCVASGFTFTTYAMNWVRQAPGKGLEWVARIRIKNNNYATYYADSVTDRFTISRDDSQSMLYLQMNNLKTEDTAMYYCVRPDYGNYGLAYWGQGTLVTVSA
VL: EIVLTQSPTTMAASPGEKITITCSASSSISSHYLHWYQQKPGFSPKLLIYRSFYLASGVPLRFTGSGSGTSYSLTIGTMEAEDVATYYCQQDIVPLTFGAGTKLELKR
notes: also called anti-CDH6 chimeric antibody Ch069707
- EC50 (read off the curve) [1]: ~0.7 nM
- Kd (cyno monkey CDH6-ECD-His): 2.19 nM
- Kd (Human CDH6-ECD-His): 2.28 nM
